From paper PMC3645317 come the findings set out here.

This assay concerns the target gHΔTM-Fc/gL (Kaposi's sarcoma-associated herpesvirus (KSHV)).

Chain of solEphA2-Fc (P29317 25-534): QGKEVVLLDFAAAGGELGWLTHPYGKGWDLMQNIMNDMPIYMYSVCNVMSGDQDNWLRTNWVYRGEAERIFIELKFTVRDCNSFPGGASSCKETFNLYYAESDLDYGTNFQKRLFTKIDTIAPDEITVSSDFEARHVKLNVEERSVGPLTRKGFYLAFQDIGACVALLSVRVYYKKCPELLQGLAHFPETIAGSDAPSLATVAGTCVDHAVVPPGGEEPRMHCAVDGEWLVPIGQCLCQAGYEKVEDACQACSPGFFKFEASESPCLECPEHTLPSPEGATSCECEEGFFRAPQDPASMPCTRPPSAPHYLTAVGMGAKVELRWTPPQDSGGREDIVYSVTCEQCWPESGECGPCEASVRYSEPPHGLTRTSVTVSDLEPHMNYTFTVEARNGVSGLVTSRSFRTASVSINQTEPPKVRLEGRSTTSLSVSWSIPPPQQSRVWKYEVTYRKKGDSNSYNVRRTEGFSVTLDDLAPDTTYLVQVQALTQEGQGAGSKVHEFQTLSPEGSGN

Turning to “solEphA2-Fc (from UniProt P29317-1 25-534) (Fc fusion)”, the inhibition of KSHV infection of 293T cells by solEphA2-Fc at 2 µg/ml turned out to be 80%.
